Here are results for two molecules from article PMC4909252, “High-resolution NMR structures of the domains of Saccharomyces cerevisiae Tho1”.

The target in data set [1] is T1, Tho1 N-terminal SAP domain (Saccharomyces cerevisiae, UniProt P40040 1-50).
T1 chain: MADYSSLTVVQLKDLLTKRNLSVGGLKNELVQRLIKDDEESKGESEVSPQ
Nature of the data set: NMR (15N HSQC); 200 uM protein, 200 uM DNA; 15N HSQC, 200 uM protein and oligo; typical NMR buffer 20 mM potassium phosphate pH 6.5, 100 mM NaCl, 5 mM beta-mercaptoethanol, 10% D2O, 25 C. As to conditions: protein: recombinant; tags: His6-lipoyl fusion removed by TEV; 15N-labelled; blunt, self-complementary, 2 copies of one strand.

In data set [2] the target is T1, Tho1 N-terminal SAP domain. Nature of the data set: NMR (15N HSQC); 200 uM protein; 15N HSQC, 200 uM protein and oligo; typical NMR buffer 20 mM potassium phosphate pH 6.5, 100 mM NaCl, 5 mM beta-mercaptoethanol, 10% D2O, 25 C. As to conditions: protein: recombinant; tags: His6-lipoyl fusion removed by TEV; 15N-labelled; called dsRNA.

B1: random dsDNA 12-mer (dsDNA)
DNA 1: TCCTGATCAGGA
DNA 2: TCCTGATCAGGA
For B1, in data set [1], the binding result is recorded as “binds”.

B2: 30-mer dsRNA (structured_RNA)
RNA: GGACAGCUGUCCCUUCGGGGACAGCUGUCC
B2: in data set [2], the binding result is listed as “no binding”.
